Data from the supplement of paper PMC11246515.
± gives the standard deviation of the averaged measurements.

Test: total protein half-life in vivo (active degradation + dilution); higher = more stable protein
[1] = E. coli NCM3722 delta-clpP delta-lon delta-hslV, growth: N-lim chemostat, doubling time 6 h
[2] = E. coli NCM3722 delta-clpP, growth: N-lim chemostat, doubling time 6 h
[3] = E. coli NCM3722 delta-hslV, growth: N-lim chemostat, doubling time 6 h
[4] = E. coli NCM3722 delta-lon, growth: N-lim chemostat, doubling time 6 h
[5] = E. coli NCM3722 delta-smpB, growth: N-lim chemostat, doubling time 6 h
[6] = wild type E. coli NCM3722, growth: C-lim chemostat, doubling time 3 h
[7] = wild type E. coli NCM3722, growth: C-lim chemostat, doubling time 6 h
[8] = wild type E. coli NCM3722, growth: C-lim chemostat, doubling time 12 h
[9] = wild type E. coli NCM3722, growth: N-lim chemostat, doubling time 6 h
[10] = wild type E. coli NCM3722, growth: N-lim chemostat, doubling time 12 h
[11] = wild type E. coli NCM3722, growth: P-lim chemostat, doubling time 6 h
[12] = wild type E. coli NCM3722, growth: P-lim chemostat, doubling time 12 h

Sequence | total protein half-life in vivo [1] | total protein half-life in vivo [2] | total protein half-life in vivo [3] | total protein half-life in vivo [4] | total protein half-life in vivo [5] | total protein half-life in vivo [6] | total protein half-life in vivo [7] | total protein half-life in vivo [8] | total protein half-life in vivo [9] | total protein half-life in vivo [10] | total protein half-life in vivo [11] | total protein half-life in vivo [12]
MNFLAHLHLAHLAESSLSGNLLADFVRGNPEESFPPDVVAGIHMHRRIDVLTDNLPEVREAREWFRSETRRVAPITLDVMWDHFLSRHWSQLSPDFPLQEFVCYAREQVMTILPDSPPRFINLNNYLWSEQWLVRYRDMDFIQNVLNGMASRRPRLDALRDSWYDLDAHYDALETRFWQFYPRMMAQASRKAL | 5.09 ± 0.57 h | 2 ± 0.55 h | 2.32 h | 3.5 ± 0.25 h | 3.83 h | 2.18 h | 4.23 h | 6.12 h | 3.3 h | 4.2 h | 3.04 ± 0.068 h | 3.73 ± 1.6 h
MNFPLIANIVVFVVLLFALAQTRHKQWSLAKKVLVGLVMGVVFGLALHTIYGSDSQVLKDSVQWFNIVGNGYVQLLQMIVMPLVFASILSAVARLHNASQLGKISFLTIGTLLFTTLIAALVGVLVTNLFGLTAEGLVQGGAETARLNAIESNYVGKVSDLSVPQLVLSFIPKNPFADLTGANPTSIISVVIFAAFLGVAALKLLKDDAPKGERVLAAIDTLQSWVMKLVRLVMQLTPYGVLALMTKVVAGSNLQDIIKLGSFVVASYLGLLIMFAVHGILLGINGVSPLKYFRKVWPVLTFAFTSRSSAASIPLNVEAQTRRLGVPESIASFAASFGATIGQNGCAGLYPAMLAVMVAPTVGINPLDPMWIATLVGIVTVSSAGVAGVGGGATFAALIVLPAMGLPVTLVALLISVEPLIDMGRTALNVSGSMTAGTLTSQWLKQTDKAILDSEDDAELAHH | 5.42 ± 0.17 h | 4.76 ± 0.058 h | 5.07 ± 0.26 h | 5 ± 0.65 h | 5.38 ± 0.78 h | 3.35 ± 0.46 h | 6.36 ± 1.8 h | 11.4 ± 2 h | 4.95 ± 1.1 h | 8.91 ± 0.48 h | 5.29 ± 0.62 h | 7.43 ± 0.75 h
MNGKLQSSDVKNETPYNIPLLINENVISSGISLISLWHTYADEHYRVIWPRDKKKPLIANSWVAVYTVQGCGKILLKNGEQITLHGNCIIFLKPMDIHSYHCEGLVWEQYWMEFTPTSMMDIPVGQQSVIYNGEIYNQELTEVAELITSPEAIKNNLAVAFLTKIIYQWICLMYADGKKDPQRRQIEKLIATLHASLQQRWSVADMAATIPCSEAWLRRLFLRYTGKTPKEYYLDARLDLALSLLKQQGNSVGEVADTLNFFDSFHFSKAFKHKFGYAPSAVLKNTDQHPTDASPHN | 5.49 ± 0.17 h |  |  |  | 1.33 ± 0.21 h |  |  |  |  |  |  | 
MNGTIYQRIEDNAHFRELVEKRQRFATILSIIMLAVYIGFILLIAFAPGWLGTPLNPNTSVTRGIPIGVGVIVISFVLTGIYIWRANGEFDRLNNEVLHEVQAS [P0AF54] |  |  |  |  |  |  | 5.84 ± 0.1 h | 8.72 ± 0.83 h |  |  |  | 
MNHSLKPWNTFGIDHNAQHIVCAEDEQQLLNAWQYATAEGQPVLILGEGSNVLFLEDYRGTVIINRIKGIEIHDEPDAWYLHVGAGENWHRLVKYTLQEGMPGLENLALIPGCVGSSPIQNIGAYGVELQRVCAYVDSVELATGKQVRLTAKECRFGYRDSIFKHEYQDRFAIVAVGLRLPKEWQPVLTYGDLTRLDPTTVTPQQVFNAVCHMRTTKLPDPKVNGNAGSFFKNPVVSAETAKALLSQFPTAPNYPQADGSVKLAAGWLIDQCQLKGMQIGGAAVHRQQALVLINEDNAKSEDVVQLAHHVRQKVGEKFNVWLEPEVRFIGASGEVSAVETIS | 4.93 ± 1.3 h | 3.45 ± 0.048 h | 3.8 ± 0.13 h | 3.89 ± 0.49 h | 3.52 ± 0.22 h | 2.93 ± 0.053 h | 4.83 ± 0.63 h | 9.87 ± 0.28 h | 3.66 ± 0.11 h | 5.41 ± 0.096 h | 4.81 ± 0.36 h | 8.99 ± 0.82 h
MNIENLKTKAEADISEYITKKIIELKKKTGKEVTSIQFTAREKMTGLESYDVKINLI | 6.69 ± 0.78 h | 6.7 ± 1.3 h | 5.74 ± 0.34 h | 6.46 ± 0.88 h | 5.57 ± 0.3 h | 3.24 ± 0.47 h | 5.85 ± 0.45 h | 10.6 ± 1.6 h | 5.71 ± 0.32 h | 13.6 ± 3.4 h | 5.4 ± 0.96 h | 
MNIKGKALLAGCIALAFSNMALAEDIKVAVVGAMSGPVAQYGDQEFTGAEQAVADINAKGGIKGNKLQIVKYDDACDPKQAVAVANKVVNDGIKYVIGHLCSSSTQPASDIYEDEGILMITPAATAPELTARGYQLILRTTGLDSDQGPTAAKYILEKVKPQRIAIVHDKQQYGEGLARAVQDGLKKGNANVVFFDGITAGEKDFSTLVARLKKENIDFVYYGGYHPEMGQILRQARAAGLKTQFMGPEGVANVSLSNIAGESAEGLLVTKPKNYDQVPANKPIVDAIKAKKQDPSGAFVWTTYAALQSLQAGLNQSDDPAEIAKYLKANSVDTVMGPLTWDEKGDLKGFEFGVFDWHANGTATDAK [P0AD96] | 6.22 ± 0.16 h | 5.81 ± 0.64 h | 6.127 ± 0.057 h | 6.35 ± 0.39 h | 5.96 ± 0.19 h | 3.27 ± 0.18 h | 6.24 ± 0.17 h | 11.46 ± 0.034 h | 6.02 ± 0.32 h | 12.23 ± 0.02 h | 5.67 ± 0.064 h | 13 ± 0.45 h
MNIKIAALTLAIASGISAQWAIAADMPASPAPTIPVKQYVTQVNADNSVTFRYFAPGAKNVSVVVGVPVPDNIHPMTKDEAGVWSWRTPILKGNLYEYFFNVDGVRSIDTGTAMTNPQRQVNSSMILVPGSYLDTRSVAHGDLIAITYHSNALQSERQMYVWTPPGYTGMGEPLPVLYFYHGFGDTGRSAIDQGRIPQIMDNLLAEGKIKPMLVVIPDTETDAKGIIPEDFVPQERRKVFYPLNAKAADRELMNDIIPLISKRFNVRKDADGRALAGLSQGGYQALVSGMNHLESFGWLATFSGVTTTTVPDEGVAARLNDPAAINQQLRNFTVVVGDKDVVTGKDIAGLKTELEQKKINFDYQEYPGLNHEMDVWRPAYAAFVQKLFK | 4.45 h |  |  |  | 3.45 ± 0.76 h |  |  |  |  |  |  | 
